Holding throughout (test): cell-based or functional assay
The target of assay [1] is 2B4 (CD244) (on human NK cells) (human) (UniProt Q9BZW8).
For assay [2], the target named is CD16 (on human NK cells) (human) (UniProt P08637).
For assay [3], the target named is HA-2DL4 (epitope-tagged 2DL4) (human) (UniProt Q99706).
In assay [4] the target is HA-2DL4 (RY-GT) mutant (human) (UniProt Q99706).
Sequence of HA-2DL4 (RY-GT) mutant (human) (Q99706 24-377, change not shown): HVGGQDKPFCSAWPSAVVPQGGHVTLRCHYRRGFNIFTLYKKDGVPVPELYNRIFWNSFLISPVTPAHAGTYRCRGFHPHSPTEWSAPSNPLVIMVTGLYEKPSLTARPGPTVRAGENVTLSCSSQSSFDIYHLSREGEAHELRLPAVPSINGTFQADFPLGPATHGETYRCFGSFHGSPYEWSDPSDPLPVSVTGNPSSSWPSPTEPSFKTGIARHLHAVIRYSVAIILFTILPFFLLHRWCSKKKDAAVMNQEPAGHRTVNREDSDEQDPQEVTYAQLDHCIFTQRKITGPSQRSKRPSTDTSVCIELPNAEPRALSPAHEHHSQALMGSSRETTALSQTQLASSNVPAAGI

Sequence of 2B4 (CD244) (on human NK cells) (human) (Q9BZW8 22-370): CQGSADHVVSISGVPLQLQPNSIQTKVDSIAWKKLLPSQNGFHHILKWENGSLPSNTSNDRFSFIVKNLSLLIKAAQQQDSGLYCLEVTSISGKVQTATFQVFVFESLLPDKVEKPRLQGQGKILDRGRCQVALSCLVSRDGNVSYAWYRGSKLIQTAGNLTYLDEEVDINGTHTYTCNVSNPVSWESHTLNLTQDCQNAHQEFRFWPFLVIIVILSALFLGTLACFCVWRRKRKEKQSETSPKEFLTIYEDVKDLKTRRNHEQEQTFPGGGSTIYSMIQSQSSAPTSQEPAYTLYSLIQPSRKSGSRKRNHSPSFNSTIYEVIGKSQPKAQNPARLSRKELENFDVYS
Sequence of CD16 (on human NK cells) (human) (P08637 17-254): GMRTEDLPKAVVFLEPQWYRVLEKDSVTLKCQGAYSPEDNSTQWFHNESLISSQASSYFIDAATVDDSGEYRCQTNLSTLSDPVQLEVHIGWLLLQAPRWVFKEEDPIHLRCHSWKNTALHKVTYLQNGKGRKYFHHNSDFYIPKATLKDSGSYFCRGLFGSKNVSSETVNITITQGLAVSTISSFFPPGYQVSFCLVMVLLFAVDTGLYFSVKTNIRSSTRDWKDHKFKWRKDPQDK
Sequence of HA-2DL4 (epitope-tagged 2DL4) (human) (Q99706 24-377): as the sequence (Q99706 24-377, change not shown) above

For the substance “anti-2B4 mAb C1.7 (IgG1; Beckman Coulter) (antibody)”, in assay [1], the increase in IFN-gamma release by IL-2-activated NK cells with P815 cells over that induced by control IgG (fold over control IgG) is 1.55, the increase in IFN-gamma release by resting NK cells with P815 cells over control IgG (fold over control IgG) is 2.1, the ratio of lysis of P815 cells by IL-2-activated NK cells over that obtained with control Ig (fold over control Ig) turned out to be 3.3 and the ratio of lysis of P815 cells by resting NK cells over that obtained with control Ig (fold over control Ig) was 3.1.

Turning to “anti-CD16 mAb 3G8 (IgG1; Medarex) (antibody)”, in assay [2], the increase in IFN-gamma release by IL-2-activated NK cells with P815 cells over that induced by control IgG (fold over control IgG) worked out at 20.1, the increase in IFN-gamma release by resting NK cells with P815 cells over control IgG (fold over control IgG) came out at 4.2, the ratio of lysis of P815 cells by IL-2-activated NK cells over that obtained with control Ig (fold over control Ig) is 4.8 and the ratio of lysis of P815 cells by resting NK cells over that obtained with control Ig (fold over control Ig) came out at 4.9.

As for “anti-HA mAb 16B12 (IgG1; Covance) (antibody)”, the fold activation of lysis of P815 cells by vaccinia-infected IL-2-activated NK cells (fold over control Ig) in assay [3] amounted to 2.9; in assay [4], 0.56.

The record behind these values is patent US20030232051A1.
